For one series, the system named is biotinyl-Met-oxazolone. As to the kind of experiment: self-aminoacylation, catalytic enhancement (BMO) (fold over background); higher = more active; k-Seq, kA / k0A0; sequences stand for … in GGGAAUGGAUCCACAUCUACGAAUUC…UUCACUGCAGACUUGACGAAGCUG
The essentials: (§1)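 Catalytic enhancement equals the median kA over the uncatalyzed rate, the latter read from the low-activity peak of a bimodal Gaussian fit. Values of kA came from fitting each sequence's fraction reacted to a pseudo-first-order model, with 1000 bootstraps. Reacted RNA was captured with streptavidin and quantified by triplicate qPCR and Illumina sequencing after 90 minutes at room temperature with 2–1250 μM biotinyl-aminoacyl-oxazolone and 0.43 μM mutagenized RNA pools bearing a 21-nt variable region.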

Another series has as its system biotinyl-Phe-oxazolone. As to the kind of experiment: self-aminoacylation, catalytic enhancement (BFO) (fold over background); higher = more active; k-Seq, kA / k0A0; sequences stand for … in GGGAAUGGAUCCACAUCUACGAAUUC…UUCACUGCAGACUUGACGAAGCUG
An outline of the steps: as §1

The test system of the next series is biotinyl-Trp-oxazolone. Kind of series: self-aminoacylation, catalytic enhancement (BWO) (fold over background); higher = more active; k-Seq, kA / k0A0; sequences stand for … in GGGAAUGGAUCCACAUCUACGAAUUC…UUCACUGCAGACUUGACGAAGCUG
An outline of the steps:
as §1

The subject of another series is biotinyl-Ile-oxazolone. As to the kind of experiment: self-aminoacylation, catalytic enhancement (BIO) (fold over background); higher = more active; k-Seq, kA / k0A0; sequences stand for … in GGGAAUGGAUCCACAUCUACGAAUUC…UUCACUGCAGACUUGACGAAGCUG
The essentials: as §1

The subject of a further series is biotinyl-Val-oxazolone. Kind of series: self-aminoacylation, catalytic enhancement (BVO) (fold over background); higher = more active; k-Seq, kA / k0A0; sequences stand for … in GGGAAUGGAUCCACAUCUACGAAUUC…UUCACUGCAGACUUGACGAAGCUG
An outline of the steps:
as §1

For a further series, the system named is biotinyl-Leu-oxazolone. Kind of series: self-aminoacylation, catalytic enhancement (BLO) (fold over background); higher = more active; k-Seq, kA / k0A0; sequences stand for … in GGGAAUGGAUCCACAUCUACGAAUUC…UUCACUGCAGACUUGACGAAGCUG
The essentials: as §1

Variants at the floor of the assay were thinned out.

As to “AUUCCCCUAGGUCAUCGGCUG [Fam2.2 aminoacylation ribozyme variant]”, the self-aminoacylation with biotinyl-Met-oxazolone was 6.91; in the series on biotinyl-Phe-oxazolone it was 30.9; with biotinyl-Trp-oxazolone, 6.44; in the series with biotinyl-Ile-oxazolone, 8.03; in the series with biotinyl-Val-oxazolone it was 7.07; in the series on biotinyl-Leu-oxazolone, 7.58.

As to “AUUCACCUAAGUCAUCGGAUG [Fam2.2 aminoacylation ribozyme variant]”, the self-aminoacylation came to 0.736 with biotinyl-Met-oxazolone; 0.343 in the series with biotinyl-Phe-oxazolone; 0.557 with biotinyl-Trp-oxazolone; 0.917 with biotinyl-Ile-oxazolone; 0.983 with biotinyl-Val-oxazolone; 0.815 in the series with biotinyl-Leu-oxazolone.

For “AUUACGCUGUUCAUCGAGUGA [Fam2.1 aminoacylation ribozyme variant]”, the self-aminoacylation in the series with biotinyl-Met-oxazolone was 3.87; in the series with biotinyl-Phe-oxazolone, 4.19; with biotinyl-Trp-oxazolone, 4.58; in the series with biotinyl-Ile-oxazolone, 2.4; with biotinyl-Val-oxazolone, 2.71; in the series on biotinyl-Leu-oxazolone, 3.57.

Regarding “ACACUCUUCAAGCAAUCGGUC [Fam1B.1 aminoacylation ribozyme variant]”, the self-aminoacylation with biotinyl-Met-oxazolone amounted to 0.9; with biotinyl-Phe-oxazolone, 4.37; in the series with biotinyl-Trp-oxazolone it was 2.4; with biotinyl-Ile-oxazolone it was 0.997; in the series with biotinyl-Val-oxazolone, 1.08; in the series with biotinyl-Leu-oxazolone it was 1.11.

On to “CCUCACUUGAAGCAAUCGGUC [Fam1B.1 aminoacylation ribozyme variant]”, for which the self-aminoacylation in the series on biotinyl-Met-oxazolone is 0.679; in the series on biotinyl-Phe-oxazolone it was 0.809; in the series on biotinyl-Trp-oxazolone it was 0.664; in the series on biotinyl-Ile-oxazolone, 0.636; in the series with biotinyl-Val-oxazolone, 0.678; in the series with biotinyl-Leu-oxazolone it was 0.607.

As for “AAUAACCUGGUCAUCGAGUGA [Fam2.1 aminoacylation ribozyme variant]”, the self-aminoacylation with biotinyl-Met-oxazolone was 5.9; with biotinyl-Phe-oxazolone, 9.51; with biotinyl-Trp-oxazolone, 7.36; with biotinyl-Ile-oxazolone it was 3.67; with biotinyl-Val-oxazolone, 3.55; with biotinyl-Leu-oxazolone, 5.79.

In the case of “AUUACCCUGUUCAGCGAGUGA [Fam2.1 aminoacylation ribozyme variant]”, the self-aminoacylation in the series on biotinyl-Met-oxazolone was found to be 5.05; with biotinyl-Phe-oxazolone it was 14.4; with biotinyl-Trp-oxazolone, 6.39; in the series on biotinyl-Ile-oxazolone, 2.51; in the series with biotinyl-Val-oxazolone it was 2.96; in the series with biotinyl-Leu-oxazolone, 4.4.

On to “CCACACCGCAAGCAAUCGGUC [Fam1B.1 aminoacylation ribozyme variant]”, for which the self-aminoacylation with biotinyl-Met-oxazolone turned out to be 1.13; in the series with biotinyl-Phe-oxazolone, 0.867; with biotinyl-Trp-oxazolone, 1.02; in the series with biotinyl-Ile-oxazolone, 1.12; in the series with biotinyl-Val-oxazolone it was 1.13; in the series with biotinyl-Leu-oxazolone, 0.882.

As for “AAGUUUGCUUAUAGUCGCAAG [Fam3.1 aminoacylation ribozyme variant]”, the self-aminoacylation is 0.801 in the series with biotinyl-Met-oxazolone; 1.13 in the series with biotinyl-Phe-oxazolone; 0.847 with biotinyl-Trp-oxazolone; 0.849 in the series with biotinyl-Ile-oxazolone; 0.862 in the series with biotinyl-Val-oxazolone; 0.768 in the series on biotinyl-Leu-oxazolone.

For the sequence “CGACACUUCAAGCAAUCGUUC [Fam1B.1 aminoacylation ribozyme variant]”, the self-aminoacylation in the series on biotinyl-Met-oxazolone was found to be 0.629; in the series with biotinyl-Phe-oxazolone, 1; in the series with biotinyl-Trp-oxazolone it was 0.465; in the series with biotinyl-Ile-oxazolone, 0.778; in the series with biotinyl-Val-oxazolone, 0.946; in the series with biotinyl-Leu-oxazolone it was 0.669.

Turning to “AAGAUUUCUAAUAGUCGCAAG [Fam3.1 aminoacylation ribozyme variant]”, the self-aminoacylation was 1.71 in the series with biotinyl-Met-oxazolone; 3.12 with biotinyl-Phe-oxazolone; 2.17 with biotinyl-Trp-oxazolone; 1.81 with biotinyl-Ile-oxazolone; 1.45 with biotinyl-Val-oxazolone; 1.49 in the series on biotinyl-Leu-oxazolone.

Turning to “CACUUUGCUAAUAGUCGCAAG [Fam3.1 aminoacylation ribozyme variant]”, the self-aminoacylation came to 1.32 with biotinyl-Met-oxazolone; 0.947 in the series with biotinyl-Phe-oxazolone; 2.22 in the series with biotinyl-Trp-oxazolone; 1.41 with biotinyl-Ile-oxazolone; 1.01 with biotinyl-Val-oxazolone; 1.38 in the series on biotinyl-Leu-oxazolone.

For the sequence “ACUACCCUGGUCAUUGAGUGA [Fam2.1 aminoacylation ribozyme variant]”, the self-aminoacylation in the series with biotinyl-Met-oxazolone worked out at 7.75; in the series on biotinyl-Phe-oxazolone, 34; in the series on biotinyl-Trp-oxazolone, 8.89; in the series with biotinyl-Ile-oxazolone it was 4.12; in the series with biotinyl-Val-oxazolone it was 4.05; in the series with biotinyl-Leu-oxazolone it was 8.8.

With “AUUCGCAUAGGUCAUCGGGUG [Fam2.2 aminoacylation ribozyme variant]”, the self-aminoacylation in the series with biotinyl-Met-oxazolone amounted to 9.49; in the series with biotinyl-Phe-oxazolone it was 66; with biotinyl-Trp-oxazolone it was 9.43; with biotinyl-Ile-oxazolone it was 5.95; in the series with biotinyl-Val-oxazolone, 7.08; with biotinyl-Leu-oxazolone it was 12.2.

On to “AAGUUUGCUGAUAAUCGCAAG [Fam3.1 aminoacylation ribozyme variant]”, for which the self-aminoacylation stood at 0.716 in the series with biotinyl-Met-oxazolone; 1.05 with biotinyl-Phe-oxazolone; 0.682 with biotinyl-Trp-oxazolone; 0.707 in the series with biotinyl-Ile-oxazolone; 0.754 in the series on biotinyl-Val-oxazolone; 0.586 in the series on biotinyl-Leu-oxazolone.

Consider “AAGUAUGCUAAUAGGCGCAAG [Fam3.1 aminoacylation ribozyme variant]”, for which the self-aminoacylation in the series on biotinyl-Met-oxazolone worked out at 0.748; in the series with biotinyl-Phe-oxazolone, 0.856; in the series with biotinyl-Trp-oxazolone it was 1.58; in the series with biotinyl-Ile-oxazolone, 0.992; with biotinyl-Val-oxazolone, 1.18; in the series on biotinyl-Leu-oxazolone, 1.08.

On to “CCACACUUCAAGCAGUCGGGC [Fam1B.1 aminoacylation ribozyme variant]”, for which the self-aminoacylation was 2.5 with biotinyl-Met-oxazolone, 2.15 in the series with biotinyl-Ile-oxazolone, 2.36 in the series on biotinyl-Val-oxazolone and 2.19 in the series with biotinyl-Leu-oxazolone.

In the case of “AUUCAGGUAGGUCAUCGGGUG [Fam2.2 aminoacylation ribozyme variant]”, the self-aminoacylation is 4.59 in the series on biotinyl-Met-oxazolone; 30.7 in the series on biotinyl-Phe-oxazolone; 5.12 in the series on biotinyl-Trp-oxazolone; 3.68 in the series with biotinyl-Ile-oxazolone; 4.23 in the series with biotinyl-Val-oxazolone; 5.83 in the series with biotinyl-Leu-oxazolone.

For the sequence “AAGUUUGCAAAUAGUCGCAUG [Fam3.1 aminoacylation ribozyme variant]”, the self-aminoacylation with biotinyl-Met-oxazolone was 1.07; in the series with biotinyl-Phe-oxazolone, 0.739; in the series with biotinyl-Trp-oxazolone, 1.46; with biotinyl-Ile-oxazolone it was 1.14; in the series with biotinyl-Val-oxazolone, 0.978; in the series on biotinyl-Leu-oxazolone it was 0.874.

On to “CUACUUCAAACCAACGGUCUG [Fam1A.1 aminoacylation ribozyme variant]”, for which the self-aminoacylation with biotinyl-Met-oxazolone was found to be 0.68; in the series on biotinyl-Phe-oxazolone, 1.44; in the series with biotinyl-Trp-oxazolone it was 0.556; in the series on biotinyl-Ile-oxazolone it was 0.786; in the series on biotinyl-Val-oxazolone, 1.02; in the series with biotinyl-Leu-oxazolone, 0.587.

Regarding “CCACACUUCAAGCAUUCAGUC [Fam1B.1 aminoacylation ribozyme variant]”, the self-aminoacylation with biotinyl-Met-oxazolone amounted to 0.505; with biotinyl-Phe-oxazolone it was 1.03; with biotinyl-Trp-oxazolone, 0.562; in the series with biotinyl-Ile-oxazolone, 0.878; in the series on biotinyl-Val-oxazolone, 0.758; in the series with biotinyl-Leu-oxazolone, 0.576.

The values above are taken from the supplement of paper PMC9233669.
